Test results: PMC2423650 (Journal of Experimental Botany, 2008)

Target: the molecule itself
Assay: SEC

Protein	Kd [µM]	stoichiometry N	fold change of the dissociation constant against atToc33 [fold]
atToc33-His (G-domain of atToc33, His-tagged) (domain or fragment, Arabidopsis thaliana, UniProt O23680 1-251, looked up) MGSLVREWVGFQQFPAATQEKLIEFFGKLKQKDMNSMTVLVLGKGGVGKSSTVNSLIGEQVVRVSPFQAEGLRPVMVSRTMGGFTINIIDTPGLVEAGYVNHQALELIKGFLVNRTIDVLLYVDRLDVYRVDELDKQVVIAITQTFGKEIWCKTLLVLTHAQFSPPDELSYETFSSKRSDSLLKTIRAGSKMRKQEFEDSAIAVVYAENSGRCSKNDKDEKALPNGEAWIPNLVKAITDVATNQRKAIHVD	400	2	–
atToc33S/E-His (phospho-mimicking mutant of the atToc33 G-domain) (domain or fragment, Arabidopsis thaliana, UniProt O23680 1-251, looked up) MGSLVREWVGFQQFPAATQEKLIEFFGKLKQKDMNSMTVLVLGKGGVGKSSTVNSLIGEQVVRVSPFQAEGLRPVMVSRTMGGFTINIIDTPGLVEAGYVNHQALELIKGFLVNRTIDVLLYVDRLDVYRVDELDKQVVIAITQTFGKEIWCKTLLVLTHAQFSPPDELSYETFSSKRSDELLKTIRAGSKMRKQEFEDSAIAVVYAENSGRCSKNDKDEKALPNGEAWIPNLVKAITDVATNQRKAIHVD	–	2	~10
